Source: patent publication US20240141028A1 (RHODE ISLAND HOSPITAL, published 2024)

Target: T1, PfGARP aa 443-459 (…) (Plasmodium falciparum)
T1 construct: Stood on the microarray as overlapping 15-mer peptides, not as one 17-mer
Experiment: microarray of overlapping 15-mer peptides
Description: The peptides overlapped by a single amino acid and were printed in duplicate, framed by HA control peptides.
For epitope mapping, a custom 15-mer peptide microarray was designed and printed. […] The peptides overlapped by a single amino acid and were printed in duplicate, framed by HA control peptides. […] A duplicate array was probed with polyclonal, monospecific anti-PfGARP-A mouse antibodies (red).

B1: recombinant monoclonal anti-PfGARP (rec mAb7899) (antibody, V domains shown)
VH: EAQLQQSGTELVKPGASVKLSCTASGFYIKDTYIHWVRQRPVQGLEWIGRIDPANYDTKYDPKFQGKATITADTSSNTAYLQLINLTPEDTVVYYCTSFGGTKLRFAYWGQGTLVTVSA
VL: NIMMTQSPSSLAVSAGEEVTMSCKSSQSVLYSSNQRNYLAWFQQKSGQSPKLLIYWASTRESGVPDRFTGSGSGTDFTLTISNLQVEDLAVYYCLQHFSSWTFGGGTKLEIK
notes: also called recombinant mAb7899; recombinant mAb
B1: binds.
